Source: patent publication US20040038369A1, “Airway-specific trypsin-like enzymes and method of using the same” (priority 2000, published 2004)

Key:
[1] = target: EGF antigen on the surface of the NCI-H292 cell membrane (proEGF) (human) (UniProt P01133); assay: flow cytometry on NCI-H292 cells, control IgG1 1 µg, FITC secondary
[2] = target: EGF antigen on the surface of the NCI-H292 cell membrane (proEGF) (human) (UniProt P01133); assay: flow cytometry on NCI-H292 cells, control IgG1 1 µg, PerCP secondary

Sequence of EGF antigen on the surface of the NCI-H292 cell membrane (proEGF) (human) (P01133 23-1207): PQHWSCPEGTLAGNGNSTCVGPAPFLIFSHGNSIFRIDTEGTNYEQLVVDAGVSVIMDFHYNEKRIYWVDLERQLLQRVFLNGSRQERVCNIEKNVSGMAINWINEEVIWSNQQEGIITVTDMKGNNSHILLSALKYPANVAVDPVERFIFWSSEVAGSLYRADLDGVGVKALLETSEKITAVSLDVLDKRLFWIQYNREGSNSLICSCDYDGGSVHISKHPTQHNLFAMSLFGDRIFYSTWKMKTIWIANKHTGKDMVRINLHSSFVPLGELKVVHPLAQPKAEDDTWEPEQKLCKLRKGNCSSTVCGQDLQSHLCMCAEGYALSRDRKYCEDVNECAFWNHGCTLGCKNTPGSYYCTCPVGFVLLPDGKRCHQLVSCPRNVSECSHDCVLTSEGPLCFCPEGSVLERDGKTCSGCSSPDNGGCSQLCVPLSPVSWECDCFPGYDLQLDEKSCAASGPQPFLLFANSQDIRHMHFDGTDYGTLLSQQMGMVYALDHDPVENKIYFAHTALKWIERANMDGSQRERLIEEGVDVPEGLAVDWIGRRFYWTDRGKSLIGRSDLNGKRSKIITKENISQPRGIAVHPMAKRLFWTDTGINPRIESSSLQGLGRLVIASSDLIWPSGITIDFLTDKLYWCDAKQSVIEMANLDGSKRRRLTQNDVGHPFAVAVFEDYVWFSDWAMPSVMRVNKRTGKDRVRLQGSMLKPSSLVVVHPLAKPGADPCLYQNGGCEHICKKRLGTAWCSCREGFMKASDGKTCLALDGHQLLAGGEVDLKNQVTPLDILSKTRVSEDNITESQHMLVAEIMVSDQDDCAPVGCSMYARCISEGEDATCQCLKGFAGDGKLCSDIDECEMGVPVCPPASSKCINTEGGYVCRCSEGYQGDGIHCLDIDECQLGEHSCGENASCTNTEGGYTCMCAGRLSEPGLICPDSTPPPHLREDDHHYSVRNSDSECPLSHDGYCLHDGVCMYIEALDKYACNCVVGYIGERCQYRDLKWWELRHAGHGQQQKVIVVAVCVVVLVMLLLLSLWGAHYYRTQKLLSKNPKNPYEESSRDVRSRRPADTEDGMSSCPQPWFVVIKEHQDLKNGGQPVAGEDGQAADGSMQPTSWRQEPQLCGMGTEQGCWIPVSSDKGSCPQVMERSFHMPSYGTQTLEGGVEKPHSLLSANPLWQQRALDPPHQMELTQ

average fluorescence intensity (back ground) [1]: 4.62 | average fluorescence intensity (back ground) [2]: 8.44
Substance: normal mouse IgG1 (produced by R & D Corp.) (antibody)
